From patent US20030088057A1, “PEPTIDE SUBSTRATES PHOSPHORYLATED BY P21-ACTIVAGED PROTEIN KINASE STATEMENT REGARDING FEDERALLY SPONSORED REASEARCH OR DEVELOPMENT” (priority 1998, published 2003)

System: γ-PAK
Assay: Phosphorylation of protein substrates by γ-PAK
Type: biochemical, rabbit
Settings: for 32P incorporated: 2 μg protein substrate, 20 units active γ-PAK, 15 min at 30° C.; for rel rate: relative to histone 2B = 100
Method: D. Phosphorylation Assays. Phosphorylation of protein substrates was carried out in 35 μL reaction mixtures containing 20 mM Tris-HCl, pH 7.4, 10 mM MgCl2, 30 mM 2-mercaptoethanol, 0.2 mM ATP (specific activity =1000 cpm/pmol), 2 μg of protein substrate, and 20 units of active γ-PAK (an enzyme unit is defined as the amount of enzyme that incorporates 1 pmol of phosphate into histone IIAS/ min at 30°. Under these conditions, phosphate incorporation was linear and initial rates of phosphorylation were measured. After incubation at 30° C. for 15 min, reactions were terminated by the addition of 5 μL of 100 mM nonlabeled ATP and sample buffer for gel electrophoresis [Hathaway, G. M., et al., Methods Enzymol., 60:495-511 (1979)]. Reaction mixtures were subjected to SDS-PAGE on 15% polyacrylamide gels followed by autoradiography. Phosphorylation was quantified by excising the protein band and counting the incorporated ^32P in a liquid scintillation counter. The specific activity of γ-PAK was 400 pmol min^−1 μg^−1 as reported previously using 0.2 mM ATP and 1 mg/mL mixed histone as substrate [Rooney, R. D., et al., (1996), supra].
A number of proteins were examined as substrates, and their relative rates of phosphorylation were compared (Table 6).

Chain of γ-PAK (Q29502 249-524 limits assumed): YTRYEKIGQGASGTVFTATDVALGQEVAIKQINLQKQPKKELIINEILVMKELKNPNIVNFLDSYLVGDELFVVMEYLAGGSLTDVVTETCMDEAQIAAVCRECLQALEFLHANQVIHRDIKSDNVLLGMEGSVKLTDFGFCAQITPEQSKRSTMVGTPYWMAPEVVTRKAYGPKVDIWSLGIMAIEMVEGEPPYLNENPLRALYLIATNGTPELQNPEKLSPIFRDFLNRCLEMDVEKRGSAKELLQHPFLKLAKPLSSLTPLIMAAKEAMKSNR

Molecule	32P incorporated [pmol]	rel rate [%]
myelin basic protein: bovine myelin basic protein, purchased from Sigma (protein) AAQKRPSQRSKYLASASTMDHARHGFLPRHRDTGILDSLGRFFGSDRGAPKRGSGKDGHHAARTTHYGSLPQKAQGHRPQDENPVVHFFKNIVTPRTPPPSQGKGRGLSLSRFSWGAEGQKPGFGYGGRASDYKSAHKGLKGHDAQGTLSKIFKLGGRDSRSGSPMARR	4.2	37
prolactin: rat prolactin (protein) LPVCSGGDCQTPLPELFDRVVMLSHYIHTLYTDMFIEFDKQYVQDREFIAKAINDCPTSSLATPEDKEQAQKVPPEVLLNLILSLVHSWNDPLFQLITGLGGIHEAPDAIISRAKEIEEQNKRLLEGIEKIISQAYPEAKGNEIYLVWSQLPSLQGVDEESKDLAFYNNIRCLRRDSHKVDNYLKFLRCQIVHKNNC	1.8	17
